For 67 sequences, protein stability index results are on record in the supplement of paper PMC10724198.

The data set has as its system Saccharomyces cerevisiae. As to the kind of experiment: protein stability index of tFT-peptide fusion (C-terminal peptide) (PSI (0-1 scale)); higher = more stable (slower turnover). The note with it: temperature: 30 C. As for the experimental part:
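MPS profiling in S. cerevisiae of the yeast C-terminome library: the last 12 aa of each annotated ORF are fused to the C-terminus of a sfGFP-mCherry timer, after a GGGS linker. Cells are FACS-sorted into 8 mCherry/sfGFP bins and deep-sequenced. PSI runs from 0 (unstable) to 1 (stable); wild type and das1Δ backgrounds, two technical replicates each.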

Where [1] appears, read: genetic background: das1 deletion.

± gives the standard deviation of the averaged measurements.

Consider PGPISFLPVIPI [YLR402W C-terminal 12 aa], for which the protein stability index was found to be 0.7092 ± 0.0061 under setting [1] and 0.744 ± 0.12 (genetic background: wild type).

With PHEAALPKPSFV [EDC2 C-terminal 12 aa], the protein stability index by setting is: under setting [1], 0.7069 ± 0.0042; (genetic background: wild type) 0.719 ± 0.038.

For the sequence PHSQNEILQYYL [NAT1 C-terminal 12 aa], the protein stability index reads like this: under setting [1], 0.705 ± 0.0095; (genetic background: wild type) 0.722 ± 0.065.

As for PHYKPRDGSQVE [SPT4 C-terminal 12 aa], the protein stability index by setting is: under setting [1], 0.69 ± 0.011; (genetic background: wild type) 0.65 ± 0.0097.

As to PICIVGNFIPLS [RDS2 C-terminal 12 aa], the protein stability index runs as follows: under setting [1], 0.689 ± 0.024; (genetic background: wild type) 0.722 ± 0.024.

PICKLLEEEERG [ALG11 C-terminal 12 aa]: the protein stability index runs as follows: under setting [1], 0.7 ± 0.011; (genetic background: wild type) 0.699 ± 0.041.

PINDRKYPNQCH [SPR1 C-terminal 12 aa]: the protein stability index is, setting by setting: under setting [1], 0.715 ± 0.028; (genetic background: wild type) 0.6948 ± 0.0011.

As to PIQQSIAHINPP [LDS2 C-terminal 12 aa], the protein stability index reads like this: under setting [1], 0.718 ± 0.0075; (genetic background: wild type) 0.6902 ± 0.0066.

As to PKDLTSLLEWKE [CLA4 C-terminal 12 aa], the protein stability index turned out to be 0.7005 ± 0.006 under setting [1] and 0.681 ± 0.044 (genetic background: wild type).

As to PLSKMEDQVFVF [CBR1 C-terminal 12 aa], the protein stability index is 0.663 ± 0.036 under setting [1] and 0.657 ± 0.027 (genetic background: wild type).

Take PQFKYRADFLII [APE3 C-terminal 12 aa]: the protein stability index came out at 0.664 ± 0.011 under setting [1] and 0.676 ± 0.037 (genetic background: wild type).

As for PQRTKIQAFNTL [MRP1 C-terminal 12 aa], the protein stability index is, setting by setting: under setting [1], 0.70194 ± 0.0001; (genetic background: wild type) 0.675 ± 0.029.

Regarding PRGQDTEDHILE [PIF1 C-terminal 12 aa], the protein stability index was 0.725 ± 0.02 under setting [1] and 0.692 ± 0.0098 (genetic background: wild type).

On to PRLKAKKKVTKP [TFB4 C-terminal 12 aa], for which the protein stability index is, setting by setting: under setting [1], 0.6873 ± 0.003; (genetic background: wild type) 0.67 ± 0.012.

With PSENFATKAKLP [YDR187C C-terminal 12 aa], the protein stability index was 0.7507 ± 0.0029 under setting [1] and 0.71 ± 0.025 (genetic background: wild type).

On to PSIQHDYTMEGW [ATG3 C-terminal 12 aa], for which the protein stability index stood at 0.72275 ± 0.00032 under setting [1] and 0.6562 ± 0.0032 (genetic background: wild type).

As to PSPYYVSEVPVS [Q0010 C-terminal 12 aa], the protein stability index came to 0.6371 ± 0.0047 under setting [1] and 0.6238 ± 0.0025 (genetic background: wild type).

As to PSSEEDILHDEL [LHS1 C-terminal 12 aa], the protein stability index was found to be 0.68 ± 0.046 under setting [1] and 0.692 ± 0.034 (genetic background: wild type).

With PSVSRKTPDYFL [PPH21 C-terminal 12 aa], the protein stability index is, setting by setting: under setting [1], 0.701 ± 0.053; (genetic background: wild type) 0.7 ± 0.032.

Take PSYEMRYNKNER [YBL065W C-terminal 12 aa]: the protein stability index runs as follows: under setting [1], 0.7137 ± 0.0027; (genetic background: wild type) 0.715 ± 0.0081.

Take PTQPTVSNKKNN [GPI14 C-terminal 12 aa]: the protein stability index is, setting by setting: under setting [1], 0.7252 ± 0.0055; (genetic background: wild type) 0.68 ± 0.022.

Take PVHLQTVGLVDC [PIR5 C-terminal 12 aa]: the protein stability index was 0.623 ± 0.032 under setting [1] and 0.672 ± 0.058 (genetic background: wild type).

Consider PYKSTELRSVAN [YDL187C C-terminal 12 aa], for which the protein stability index by setting is: under setting [1], 0.671 ± 0.04; (genetic background: wild type) 0.742 ± 0.048.

Consider “QAKFFYQDLMSL [YHL046W-A C-terminal 12 aa]”, for which the protein stability index was found to be 0.72 ± 0.038 under setting [1] and 0.739 ± 0.052 (genetic background: wild type).

QAQLTAATNAKQ [PDC5 C-terminal 12 aa]: the protein stability index is 0.6916 ± 0.0017 under setting [1] and 0.731 ± 0.069 (genetic background: wild type).

Turning to QDEDEDEDIEMQ [RAD3 C-terminal 12 aa], the protein stability index by setting is: under setting [1], 0.6935 ± 0.0052; (genetic background: wild type) 0.705 ± 0.057.

Take QDYVKDRHHGLK [NUP157 C-terminal 12 aa]: the protein stability index is 0.698 ± 0.01 under setting [1] and 0.679 ± 0.043 (genetic background: wild type).

Consider QEPVIDPGTVVV [MRPL3 C-terminal 12 aa], for which the protein stability index by setting is: under setting [1], 0.6775 ± 0.0024; (genetic background: wild type) 0.676 ± 0.011.

Regarding “QEQQNLRQKQPN [YBL029C-A C-terminal 12 aa]”, the protein stability index under setting [1] was 0.704 ± 0.01 and the protein stability index (genetic background: wild type) is 0.7093 ± 0.0059.

For QESTLETTQKED [AFI1 C-terminal 12 aa], the protein stability index is, setting by setting: under setting [1], 0.703 ± 0.032; (genetic background: wild type) 0.666 ± 0.018.

Turning to QETAISVAKLFK [RPT6 C-terminal 12 aa], the protein stability index reads like this: under setting [1], 0.684 ± 0.007; (genetic background: wild type) 0.7079 ± 0.007.

Consider QFAQDTLKNFVQ [SAM35 C-terminal 12 aa], for which the protein stability index reads like this: under setting [1], 0.733 ± 0.022; (genetic background: wild type) 0.713 ± 0.03.

Take QGRQGFNGGSRW [YNL208W C-terminal 12 aa]: the protein stability index runs as follows: under setting [1], 0.706 ± 0.025; (genetic background: wild type) 0.681 ± 0.028.

As for QKARDFSRSVVH [ARO2 C-terminal 12 aa], the protein stability index runs as follows: under setting [1], 0.696 ± 0.00098; (genetic background: wild type) 0.698 ± 0.021.

QKTAQQKNCSIM [YNL234W C-terminal 12 aa]: the protein stability index is 0.746 ± 0.018 under setting [1] and 0.721 ± 0.019 (genetic background: wild type).

Consider QLAIALSLSEIN [UFO1 C-terminal 12 aa], for which the protein stability index was found to be 0.694 ± 0.011 under setting [1] and 0.714 ± 0.035 (genetic background: wild type).

As for QLISTPIKDNEH [KIC1 C-terminal 12 aa], the protein stability index came out at 0.693 ± 0.018 under setting [1] and 0.682 ± 0.031 (genetic background: wild type).

In turn, QLKLLNALDSVD [YDR537C C-terminal 12 aa] showed a protein stability index under setting [1] of 0.696 ± 0.011 and a protein stability index (genetic background: wild type) of 0.757 ± 0.069.

Turning to QLLNDSPLEDKF [FBP26 C-terminal 12 aa], the protein stability index by setting is: under setting [1], 0.711 ± 0.026; (genetic background: wild type) 0.7 ± 0.026.

As to QLMYEQDDEEVP [HAP3 C-terminal 12 aa], the protein stability index by setting is: under setting [1], 0.718 ± 0.015; (genetic background: wild type) 0.64582 ± 0.00022.

QNARAAFKSTLV [YDR514C C-terminal 12 aa]: the protein stability index by setting is: under setting [1], 0.707 ± 0.012; (genetic background: wild type) 0.698 ± 0.044.

For the sequence QPSSASCLFILI [AHT1 C-terminal 12 aa], the protein stability index runs as follows: under setting [1], 0.716 ± 0.023; (genetic background: wild type) 0.696 ± 0.055.

With QQFYKDVYAMQD [THI2 C-terminal 12 aa], the protein stability index by setting is: under setting [1], 0.74 ± 0.018; (genetic background: wild type) 0.6413 ± 0.001.

For QSLPPTLKVNRL [RPL38 C-terminal 12 aa], the protein stability index under setting [1] came out at 0.672 ± 0.012 and the protein stability index (genetic background: wild type) is 0.65859 ± 0.00042.

In the case of QTAISMNDEDDA [GVP36 C-terminal 12 aa], the protein stability index reads like this: under setting [1], 0.712 ± 0.013; (genetic background: wild type) 0.7006 ± 0.0018.

QTLDSEYNTILQ [GAT2 C-terminal 12 aa]: the protein stability index worked out at 0.704 ± 0.024 under setting [1] and 0.742 ± 0.073 (genetic background: wild type).

For the sequence “QTSGTFLHFSRP [YEL075W-A C-terminal 12 aa]”, the protein stability index came to 0.712 ± 0.01 under setting [1] and 0.718 ± 0.062 (genetic background: wild type).

Regarding QTSKGPENLQFS [RAD53 C-terminal 12 aa], the protein stability index is, setting by setting: under setting [1], 0.71 ± 0.05; (genetic background: wild type) 0.723 ± 0.018.

Consider QVNKPGPLTVPF [MEH1 C-terminal 12 aa], for which the protein stability index runs as follows: under setting [1], 0.702 ± 0.015; (genetic background: wild type) 0.716 ± 0.018.

In the case of QWMNEMVERWAN [SOH1 C-terminal 12 aa], the protein stability index is 0.707 ± 0.0074 under setting [1] and 0.7 ± 0.0099 (genetic background: wild type).

As for RAKTMNRSQSHV [PFK26 C-terminal 12 aa], the protein stability index is 0.697 ± 0.0089 under setting [1] and 0.7255 ± 0.0013 (genetic background: wild type).

For the sequence RAYCVGFKWVRF [MCH5 C-terminal 12 aa], the protein stability index is, setting by setting: under setting [1], 0.675 ± 0.02; (genetic background: wild type) 0.145 ± 0.028.

Regarding RDWSSFSKDYEI [PMS1 C-terminal 12 aa], the protein stability index runs as follows: under setting [1], 0.7561 ± 0.0022; (genetic background: wild type) 0.699 ± 0.0094.

As for RGRIAAQKRIAA [RPL17A C-terminal 12 aa], the protein stability index runs as follows: under setting [1], 0.667 ± 0.0084; (genetic background: wild type) 0.604 ± 0.045.

In the case of RKFFKRMTNFWC [TAT1 C-terminal 12 aa], the protein stability index runs as follows: under setting [1], 0.7409 ± 0.0066; (genetic background: wild type) 0.436 ± 0.025.

As to RKRFSYTQTKNK [RSM19 C-terminal 12 aa], the protein stability index runs as follows: under setting [1], 0.678 ± 0.013; (genetic background: wild type) 0.66787 ± 0.00059.

For RKSKRVLPVSKF [PET309 C-terminal 12 aa], the protein stability index was 0.783 ± 0.0088 under setting [1] and 0.794 ± 0.087 (genetic background: wild type).

Take RLIFYPDEYEQL [PRE3 C-terminal 12 aa]: the protein stability index is, setting by setting: under setting [1], 0.743 ± 0.012; (genetic background: wild type) 0.736 ± 0.071.

On to RLKPRQIVPKRS [SLI15 C-terminal 12 aa], for which the protein stability index was 0.7194 ± 0.0028 under setting [1] and 0.724 ± 0.054 (genetic background: wild type).

For the sequence RLKSQNVVTYYK [NIP100 C-terminal 12 aa], the protein stability index runs as follows: under setting [1], 0.707 ± 0.032; (genetic background: wild type) 0.692 ± 0.015.

Regarding RLSRWFNETENI [MEI4 C-terminal 12 aa], the protein stability index runs as follows: under setting [1], 0.756 ± 0.043; (genetic background: wild type) 0.727 ± 0.096.

For the sequence RMLMGTTKRGRF [YAL037W C-terminal 12 aa], the protein stability index came out at 0.704 ± 0.02 under setting [1] and 0.6898 ± 0.0036 (genetic background: wild type).

In the case of RNVDKLDVFSNS [MRM2 C-terminal 12 aa], the protein stability index came to 0.716 ± 0.019 under setting [1] and 0.727 ± 0.037 (genetic background: wild type).

On to RPQYRRIAALEE [PSY3 C-terminal 12 aa], for which the protein stability index under setting [1] came out at 0.695 ± 0.023 and the protein stability index (genetic background: wild type) was 0.672 ± 0.015.

For the sequence RQEEIKKRTALV [DPC25 C-terminal 12 aa], the protein stability index is, setting by setting: under setting [1], 0.705 ± 0.0089; (genetic background: wild type) 0.619 ± 0.022.

RRFDVYSDVNAH [NIT3 C-terminal 12 aa]: the protein stability index under setting [1] worked out at 0.71 ± 0.0033 and the protein stability index (genetic background: wild type) was 0.677 ± 0.044.

With RSFVTRFLHFWC [HIP1 C-terminal 12 aa], the protein stability index under setting [1] is 0.777 ± 0.024 and the protein stability index (genetic background: wild type) is 0.716 ± 0.046.
